Laboratory results as given in US20140274782A1, “AFFINITY REAGENTS AND METHODS FOR DETECTION, PURIFICATION, AND PROTEOMIC ANALYSIS OF METHYLATED PROTEINS” (The Board of Trustees of the Leland Stanford Junior …, priority 2013, published 2014).

T1: G9a and GLP (Homo sapiens, UniProt Q96KQ7+Q9H9B1)
T1 sequence (Q96KQ7 2-1210 limits assumed): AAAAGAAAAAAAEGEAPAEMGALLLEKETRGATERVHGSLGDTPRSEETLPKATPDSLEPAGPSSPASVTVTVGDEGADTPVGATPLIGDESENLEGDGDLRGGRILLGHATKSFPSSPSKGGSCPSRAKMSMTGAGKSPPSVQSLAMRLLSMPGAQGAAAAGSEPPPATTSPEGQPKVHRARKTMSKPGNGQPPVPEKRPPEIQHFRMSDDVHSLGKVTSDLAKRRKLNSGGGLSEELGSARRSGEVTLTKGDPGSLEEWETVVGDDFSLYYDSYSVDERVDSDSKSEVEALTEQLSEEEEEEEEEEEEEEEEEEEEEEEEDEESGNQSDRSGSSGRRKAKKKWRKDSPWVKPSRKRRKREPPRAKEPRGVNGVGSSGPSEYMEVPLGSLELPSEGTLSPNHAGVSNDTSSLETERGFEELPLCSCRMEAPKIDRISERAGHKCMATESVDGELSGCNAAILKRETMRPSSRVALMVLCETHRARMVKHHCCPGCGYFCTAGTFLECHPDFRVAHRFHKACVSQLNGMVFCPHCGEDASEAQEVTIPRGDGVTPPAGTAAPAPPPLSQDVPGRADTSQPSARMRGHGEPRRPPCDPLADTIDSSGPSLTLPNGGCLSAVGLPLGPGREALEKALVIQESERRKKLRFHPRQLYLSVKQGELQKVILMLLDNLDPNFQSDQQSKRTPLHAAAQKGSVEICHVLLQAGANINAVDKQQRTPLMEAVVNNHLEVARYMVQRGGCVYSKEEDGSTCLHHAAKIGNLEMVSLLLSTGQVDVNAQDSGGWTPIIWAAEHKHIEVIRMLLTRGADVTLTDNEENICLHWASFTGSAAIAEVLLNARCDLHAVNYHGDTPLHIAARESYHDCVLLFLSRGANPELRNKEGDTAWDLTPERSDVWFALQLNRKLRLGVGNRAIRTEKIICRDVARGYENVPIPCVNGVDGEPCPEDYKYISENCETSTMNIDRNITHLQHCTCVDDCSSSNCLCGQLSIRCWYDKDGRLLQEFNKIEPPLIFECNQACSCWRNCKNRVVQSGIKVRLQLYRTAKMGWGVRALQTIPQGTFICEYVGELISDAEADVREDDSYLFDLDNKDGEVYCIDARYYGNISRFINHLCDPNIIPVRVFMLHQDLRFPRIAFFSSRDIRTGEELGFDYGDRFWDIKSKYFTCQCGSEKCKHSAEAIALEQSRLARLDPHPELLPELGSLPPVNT
T1 sequence (Q9H9B1 2-1298 limits assumed): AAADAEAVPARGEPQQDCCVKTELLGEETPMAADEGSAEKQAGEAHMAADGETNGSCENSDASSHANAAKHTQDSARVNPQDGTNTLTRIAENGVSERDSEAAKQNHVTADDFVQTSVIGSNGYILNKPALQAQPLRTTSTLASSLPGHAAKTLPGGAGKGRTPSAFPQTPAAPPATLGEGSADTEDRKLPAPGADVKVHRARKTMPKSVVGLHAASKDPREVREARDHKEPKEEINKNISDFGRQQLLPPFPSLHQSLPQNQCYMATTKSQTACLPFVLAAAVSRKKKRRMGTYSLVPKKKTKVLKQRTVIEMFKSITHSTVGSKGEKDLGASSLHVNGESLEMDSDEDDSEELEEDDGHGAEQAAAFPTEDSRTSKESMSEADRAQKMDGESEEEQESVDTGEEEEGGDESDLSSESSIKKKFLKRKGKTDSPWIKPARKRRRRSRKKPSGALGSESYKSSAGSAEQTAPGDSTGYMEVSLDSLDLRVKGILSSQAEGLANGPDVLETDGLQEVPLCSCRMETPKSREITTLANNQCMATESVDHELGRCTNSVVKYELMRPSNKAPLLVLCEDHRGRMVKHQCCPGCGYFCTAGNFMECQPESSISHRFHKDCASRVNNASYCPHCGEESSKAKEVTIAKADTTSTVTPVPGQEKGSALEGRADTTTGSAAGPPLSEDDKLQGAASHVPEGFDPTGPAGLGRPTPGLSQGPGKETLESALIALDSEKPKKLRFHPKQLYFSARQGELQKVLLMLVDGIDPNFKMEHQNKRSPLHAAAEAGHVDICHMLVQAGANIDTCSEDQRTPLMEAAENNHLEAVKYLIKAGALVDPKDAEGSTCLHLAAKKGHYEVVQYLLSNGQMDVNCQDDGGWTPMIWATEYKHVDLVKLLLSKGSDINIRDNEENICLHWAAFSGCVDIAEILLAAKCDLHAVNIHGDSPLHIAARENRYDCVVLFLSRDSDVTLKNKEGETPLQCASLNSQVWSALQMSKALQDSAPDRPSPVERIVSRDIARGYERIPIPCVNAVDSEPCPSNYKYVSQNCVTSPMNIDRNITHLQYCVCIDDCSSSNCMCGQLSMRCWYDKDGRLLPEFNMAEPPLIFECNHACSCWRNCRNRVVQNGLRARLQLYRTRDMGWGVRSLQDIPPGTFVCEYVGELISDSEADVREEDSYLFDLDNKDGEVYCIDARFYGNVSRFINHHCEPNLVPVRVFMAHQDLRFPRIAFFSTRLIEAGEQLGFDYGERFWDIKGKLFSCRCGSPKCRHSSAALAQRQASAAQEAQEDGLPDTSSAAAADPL

B1: YTHDC2 (protein, UniProt Q9H6S0 1-1430, looked up)
3'-5' RNA helicase YTHDC2: MSRPSSVSPRQPAPGGGGGGGPSPCGPGGGGRAKGLKDIRIDEEVKIAVNIALERFRYGDQREMEFPSSLTSTERAFIHRLSQSLGLVSKSKGKGANRYLTVKKKDGSETAHAMMTCNLTHNTKHAVRSLIQRFPVTNKERTELLPKTERGNVFAVEAENREMSKTSGRLNNGIPQIPVKRGESEFDSFRQSLPVFEKQEEIVKIIKENKVVLIVGETGSGKTTQIPQFLLDDCFKNGIPCRIFCTQPRRLAAIAVAERVAAERRERIGQTIGYQIRLESRVSPKTLLTFCTNGVLLRTLMAGDSTLSTVTHVIVDEVHERDRFSDFLLTKLRDLLQKHPTLKLILSSAALDVNLFIRYFGSCPVIYIQGRPFEVKEMFLEDILRTTGYTNKEMLKYKKEKQQEEKQQTTLTEWYSAQENSFKPESQRQRTVLNVTDEYDLLDDGGDAVFSQLTEKDVNCLEPWLIKEMDACLSDIWLHKDIDAFAQVFHLILTENVSVDYRHSETSATALMVAAGRGFASQVEQLISMGANVHSKASNGWMALDWAKHFGQTEIVDLLESYSATLEFGNLDESSLVQTNGSDLSAEDRELLKAYHHSFDDEKVDLDLIMHLLYNICHSCDAGAVLIFLPGYDEIVGLRDRILFDDKRFADSTHRYQVFMLHSNMQTSDQKKVLKNPPAGVRKIILSTNIAETSITVNDVVFVIDSGKVKEKSFDALNFVTMLKMVWISKASAIQRKGRAGRCRPGICFRLFSRLRFQNMLEFQTPELLRMPLQELCLHTKLLAPVNCPIADFLMKAPEPPPALIVRNAVQMLKTIDAMDTWEDLTELGYHLADLPVEPHLGKMVLCAVVLKCLDPILTIACTLAYRDPFVLPTQASQKRAAMLCRKRFTAGAFSDHMALLRAFQAWQKARSDGWERAFCEKNFLSQATMEIIIGMRTQLLGQLRASGFVRARGGGDIRDVNTNSENWAVVKAALVAGMYPNLVHVDRENLVLTGPKEKKVRFHPASVLSQPQYKKIPPANGQAAAIKALPTDWLIYDEMTRAHRIANIRCCSAVTPVTILVFCGPARLASNALQEPSSFRVDGIPNDSSDSEMEDKTTANLAALKLDEWLHFTLEPEAASLLLQLRQKWHSLFLRRMRAPSKPWSQVDEATIRAIIAVLSTEEQSAGLQQPSGIGQRPRPMSSEELPLASSWRSNNSRKSSADTEFSDECTTAERVLMKSPSPALHPPQKYKDRGILHPKRGTEDRSDQSSLKSTDSSSYPSPCASPSPPSSGKGSKSPSPRPNMPVRYFIMKSSNLRNLEISQQKGIWSTTPSNERKLNRAFWESSIVYLVFSVQGSGHFQGFSRMSSEIGREKSQDWGSAGLGGVFKVEWIRKESLPFQFAHHLLNPWNDNKKVQISRDGQELEPLVGEQLLQLWERLPLGEKNTTD
B2: SMARCA1 (protein, UniProt P28370 1-1042, looked up)
SWI/SNF-related …: MEQDTAAVAATVAAADATATIVVIEDEQPGPSTSQEEGAAAAATEATAATEKGEKKKEKNVSSFQLKLAAKAPKSEKEMDPEYEEKMKADRAKRFEFLLKQTELFAHFIQPSAQKSPTSPLNMKLGRPRIKKDEKQSLISAGDYRHRRTEQEEDEELLSESRKTSNVCIRFEVSPSYVKGGPLRDYQIRGLNWLISLYENGVNGILADEMGLGKTLQTIALLGYLKHYRNIPGPHMVLVPKSTLHNWMNEFKRWVPSLRVICFVGDKDARAAFIRDEMMPGEWDVCVTSYEMVIKEKSVFKKFHWRYLVIDEAHRIKNEKSKLSEIVREFKSTNRLLLTGTPLQNNLHELWALLNFLLPDVFNSADDFDSWFDTKNCLGDQKLVERLHAVLKPFLLRRIKTDVEKSLPPKKEIKIYLGLSKMQREWYTKILMKDIDVLNSSGKMDKMRLLNILMQLRKCCNHPYLFDGAEPGPPYTTDEHIVSNSGKMVVLDKLLAKLKEQGSRVLIFSQMTRLLDILEDYCMWRGYEYCRLDGQTPHEEREEAIEAFNAPNSSKFIFMLSTRAGGLGINLASADVVILYDSDWNPQVDLQAMDRAHRIGQKKPVRVFRLITDNTVEERIVERAEIKLRLDSIVIQQGRLIDQQSNKLAKEEMLQMIRHGATHVFASKESELTDEDITTILERGEKKTAEMNERLQKMGESSLRNFRMDIEQSLYKFEGEDYREKQKLGMVEWIEPPKRERKANYAVDAYFREALRVSEPKIPKAPRPPKQPNVQDFQFFPPRLFELLEKEILYYRKTIGYKVPRNPDIPNPALAQREEQKKIDGAEPLTPEETEEKEKLLTQGFTNWTKRDFNQFIKANEKYGRDDIDNIAREVEGKSPEEVMEYSAVFWERCNELQDIEKIMAQIERGEARIQRRISIKKALDAKIARYKAPFHQLRIQYGTSKGKNYTEEEDRFLICMLHKMGFDRENVYEELRQCVRNAPQFRFDWFIKSRTAMEFQRRCNTLISLIEKENMEIEERERAEKKKRATKTPMVKFSAFS
B3: NCBP1 (protein, UniProt Q09161 1-790, looked up)
Nuclear cap-binding protein …: MSRRRHSDENDGGQPHKRRKTSDANETEDHLESLICKVGEKSACSLESNLEGLAGVLEADLPNYKSKILRLLCTVARLLPEKLTIYTTLVGLLNARNYNFGGEFVEAMIRQLKESLKANNYNEAVYLVRFLSDLVNCHVIAAPSMVAMFENFVSVTQEEDVPQVRRDWYVYAFLSSLPWVGKELYEKKDAEMDRIFANTESYLKRRQKTHVPMLQVWTADKPHPQEEYLDCLWAQIQKLKKDRWQERHILRPYLAFDSILCEALQHNLPPFTPPPHTEDSVYPMPRVIFRMFDYTDDPEGPVMPGSHSVERFVIEENLHCIIKSHWKERKTCAAQLVSYPGKNKIPLNYHIVEVIFAELFQLPAPPHIDVMYTTLLIELCKLQPGSLPQVLAQATEMLYMRLDTMNTTCVDRFINWFSHHLSNFQFRWSWEDWSDCLSQDPESPKPKFVREVLEKCMRLSYHQRILDIVPPTFSALCPANPTCIYKYGDESSNSLPGHSVALCLAVAFKSKATNDEIFSILKDVPNPNQDDDDDEGFSFNPLKIEVFVQTLLHLAAKSFSHSFSALAKFHEVFKTLAESDEGKLHVLRVMFEVWRNHPQMIAVLVDKMIRTQIVDCAAVANWIFSSELSRDFTRLFVWEILHSTIRKMNKHVLKIQKELEEAKEKLARQHKRRSDDDDRSSDRKDGVLEEQIERLQEKVESAQSEQKNLFLVIFQRFIMILTEHLVRCETDGTSVLTPWYKNCIERLQQIFLQHHQIIQQYMVTLENLLFTAELDPHILAVFQQFCALQA

test system: 3×MBT domain of L3MBTL1; test: Triple SILAC pull-down, 3xMBT/3xMBTD355N ratio (cytoplasmic, nuclear and chromatin fractions of 293T cells); assay type: binding, human; conditions: SILAC ratio 3xMBT vs 3xMBTD355N pull-down, 293T cells; experiment with UNC0638 in heavy SILAC media; all values in log base 2;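 further: proteins quantified with MaxQuant, requiring at least two unique peptides and quantification in both label directions, normalized to the mean of proteins from a digested loading control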

Row | Molecule | 3xMBT/D355N UNC Heavy [log base 2]
1 | B1 | 1.74
2 | B2 | 0.79
3 | B3 | 1.27

same assay, conditions: SILAC ratio 3xMBT vs 3xMBTD355N pull-down, 293T cells; experiment with UNC0638 in light SILAC media; all values in log base 2

Row | Molecule | 3xMBT/D355N UNC Light [log base 2]
4 | B1 | 2.87
5 | B2 | 3.03
6 | B3 | 2.23

molecular target: T1, G9a and GLP; test: Triple SILAC pull-down after UNC0638 treatment of 293T cells, DMSO/UNC0638 ratio of protein captured by 3×MBT; assay type: cell-based; parameters: endogenous in cells; host or cells: HEK 293T; conditions: SILAC ratio DMSO relative to UNC0638, pull-down with 3xMBT; UNC0638 in heavy SILAC media; all values in log base 2;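 further: mass spectrometry (Q-Exactive) SILAC quantitation, DMSO/UNC0638 ratio computed after subtracting 3×MBTD355N mutant pull-down background, only proteins with at least twofold 3×MBT over mutant signal considered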

Row | Molecule | Relative to UNC0638 UNC Heavy [log base 2]
7 | B1 | −0.10
8 | B2 | −0.35
9 | B3 | −0.32

same assay, conditions: SILAC ratio DMSO relative to UNC0638, pull-down with 3xMBT; UNC0638 in light SILAC media; all values in log base 2

Row | Molecule | Relative to UNC0638 UNC Light [log base 2]
10 | B1 | −0.07
11 | B2 | 0.18
12 | B3 | 0.11

same assay, conditions: average of UNC Light and UNC Heavy experiments; all values in log base 2

Row | Molecule | Relative to UNC0638 Average [log base 2]
13 | B1 | −0.08
14 | B2 | −0.09
15 | B3 | −0.11
